Assay [1] deals with recombinant HLA-B*15:01 (heavy chain with human β2-microglobulin light chain) (human).
In assay [2] the target is recombinant HLA-A*01:01 (heavy chain with human β2-microglobulin light chain) (human).

B1: ALK R1275Q-derived decamer neoepitope (…) (peptide)
peptide: AQDIYRASYY
With B1, in assay [1], the melting temperature (Tm) of the purified p/MHC complex, differential scanning fluorimetry was 59.3 °C. Also, the thermal stability (Tm) of the purified p/MHC complex, differential scanning fluorimetry in assay [2] turned out to be 47.9 °C.

B2: ALK R1275Q-derived nonamer neoepitope (…) (peptide)
peptide: AQDIYRASY
As for B2, the melting temperature (Tm) of the purified p/MHC complex, differential scanning fluorimetry in assay [1] is 53.4 °C. For the same molecule, in assay [2], the thermal stability (Tm) of the purified p/MHC complex, differential scanning fluorimetry was found to be 46.7 °C.
